Assay results from the nanobody polyreactivity screen of Harvey et al. (2022).

Assay: yeast display, Sf9 membrane polyspecificity reagent, FACS + sequencing; frameworks hold sequencing errors
Summary of the method: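 Galactose induction of a Saccharomyces cerevisiae BJ5465 synthetic nanobody display library ran 36–48 hours. The cells were then stained for 1 hour at 4 °C with 10% biotinylated, detergent-solubilized Sf9 membrane reagent, pulled down on streptavidin microbeads and FACS-sorted into low and high (top ~1%) gates on expression and reagent-binding fluorescence. Labels for polyreactivity follow the gate of origin.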

Row | Sequence | polyreactivity (PSR sort gate)
1 | QVQHVESRGGLVQAGGSLRLSCAASGRTFFWYAMGWYRQAPGKERELVADISSSGGSTYYADSVKGRFTISRDNAKNTVYLQMNSLKPEDTAVYYCAALSPWWRGGYNYWGQGTQVTVSS | high polyreactivity
2 | QVQLVESGGGLVQAGGSLRLICAASGRIFGGNAMGWYRQAPGKERELVAPISRSGGSTYYADSVKVRFTISLDNAKNTVYLQMNSLIPEDTAVYYCAAVRRPGTGKYTEYDYWGQGTQVTVSS | high polyreactivity
3 | QVQLVESGGGLVQAGGSLRLSCDASGSTFRSYAMGWYRQAHGKERELVASISGRGGSTYYADSVKGRFTISRDNAKNTVYLQMNSLKPEDTAVYYCAKRYRVSYYPYADPYGYWGQGTQVTVSS | low polyreactivity
4 | QVQLVESGGGLVQAGGSLRLSCAASGLTFYVYAMGWYRQAPGKEREFVAAISWSGTSTSYADSVKGRFTISRDNAKNTVYLQMNSLKPEDTAVYYCAADSFASVYFGTGYDYWGQGTQVTVSS | low polyreactivity
5 | QDQLVDSGGGLVQAGGSLRLSCAASGFTFFRKAMGWYREAPGKERQLVAAITRAGSTYYADSVKGRFTISRDNAKNTVYLQMNSLKAEDTEVYYCFDLSNRYAVRYDYWGQGTQVTVSS | high polyreactivity
6 | QAQLQESGGGLVQADGSLRLCCAASGSIFQTIYMGWYRQAPGKERELVASIDIGANTDYAVSVKGRFTISRDNAKNSVYLQMHSLKPEDTAVYYCAARYSRGRLLVSRGNYWGQGTQVTVSS | high polyreactivity
7 | QVQLVESGGGLVKAGGSLRLSCAASGRTFGDNAMGWYRQAPGKERELVAAIRWGGGSTYYADSVKGRFTISRDNAKNTVYLQMNSLKPEDTAVYYCAKKGWSSHDRAWYIYDYWGQGSQVTVSS | low polyreactivity
8 | QVQLVESGGGLVQAGGSLRLSCAASGIIFYYYAMGWYRPAPGKERELVAAITSSGVRTYYADSVKGRFTLSRDTAKNTVYLQMNSLKPEDTAVYYCAASVSWPRVSQRARYGYYYWGQGTQVTVSS | high polyreactivity
9 | QVQLVESGGGLVQAGGSLRLSCAASGSIFGYNAMGWYRQAPGKERELVAAISGGGGTYYADSVKGRFTISRDNAKNTVYLQMNSLKPEDTAVYYCATDRVHKWLFYGTYYRYEYWGQGTHVTVSS | low polyreactivity
10 | QVQLVESGGGLVQAGGSLRLSCAASGSILGYYAMGWYRQAPGKERELVAITSGDSTYYADSVKGRFTISRDNAKNTVYLQMNSLKPEDTAVYYCNARYSWKYDYWGQGTQVTVSS | high polyreactivity
11 | QVQRVESGGGLVPAGGSLRLSCAASGSIFYYNAMGWYRQAPGKERELVAAISWGDGITYYADSVKGRFTISRDNAKKTVYVQMNSLKPEDTAVYYCAVDYYYLPYEYWGQGTQVTVSS | high polyreactivity
12 | QVQLVESGGGLVQAGGSLRLSCAASGRTFRSYTMGWYRQAPGKERELVAAIRTSSGSTYYADSVKGRFTISRDNAKNTVYLQMNSLKPEDSGVYYGAKTLLYPWFRTVAVDYWGQGTQVTVSS | low polyreactivity
13 | QVQLVESGGGLVQAGGSLRLSCAASGRTFTQNAMGWYRQAPAKERELVAAISKSGDRTYYADSVKGRFTISRDNAKNTVYLQMNSLKPEDTAVYYCAADTYVSYYWWQTEDDYWGQGTQVTVSS | high polyreactivity
14 | QVQLVESGGGLVQAGGSLRLSCAASGSIFTYNAMGWYRPAPGKERELVAAINTSGSTNYADSVKGRFTISRDNAKNTVYLQMNSLKPEDTAVYYCAAGIVVTGYDYWGQGTQVTVSS | low polyreactivity
15 | QVQLVESWGGLVQAGGSLRLSCAASGSTFYRYAMGWYRQAPGKERELVAAISRSGGNTFYADSVKGRFTISRDNAKNTVYLQMNSLKQEDTAVYYCAAEAHLACYYRYYGGYGYDYWGQGTQVTVSW | high polyreactivity
16 | QVQLVESGGGLVQAGGSLRLSCAASGRIFDLYTMGWYRQAPGKERELVAAIRWSDGSTYYADSVTGRFTISRDNAKNTVYLQMNSLKPEDTAVYYCAADTRTSYYNDDYDYWGQGTQVTVSS | low polyreactivity
17 | QVQLLESGGGVVQAGGSLRLSCASSGFTFRINAMGWYRPAPGKERELVAANSGRGGSTYYADSVKGRFTISRDYAKNTVYLQMNSLKPEDTAVYYCAAKGSSSLSYYYWGQGTQVTVSS | high polyreactivity
